Square brackets hold non-standard residues; d marks the D form. Ends that are not written are not given here. Nle = CCCC[C@H](N)C(=O)O
B1: ACTH1-24-4aa-NDP-α-MSH (peptide)
peptide: SYSMEHFRWGKPVGKKRRPVKVYPGGGSSYS[Nle]EH[dF]RWGKPV
modifications: ends and bridges not checked
B2: ACTH1-24-7aa-NDP-α-MSH (peptide)
peptide: SYSMEHFRWGKPVGKKRRPVKVYPGGGGSGGSYS[Nle]EH[dF]RWGKPV
modifications: ends and bridges not checked
B3: ACTH1-24-point-5-4aa-NDP-α-MSH (peptide)
peptide: SYSMEHFRWGKPVGKKRRAVKVYPGGGSSYS[Nle]EH[dF]RWGKPV
B4: ACTH1-24-point-1-2-10aa-NDP-α-MSH (peptide)
peptide: SYSMEHFRWGKPVGAARRPVKVYPGGGGSGGGGSSYS[Nle]EH[dF]RWGKPV
modifications: ends and bridges not checked
B5: ACTH1-24-point-3-5-10aa-NDP-α-MSH (peptide)
peptide: SYSMEHFRWGKPVGKKAAAVKVYPGGGGSGGGGSSYS[Nle]EH[dF]RWGKPV
modifications: ends and bridges not checked
B6: ACTH1-24-point-1-2-7aa-NDP-α-MSH (peptide)
peptide: SYSMEHFRWGKPVGAARRPVKVYPGGGGSGGSYS[Nle]EH[dF]RWGKPV
modifications: ends and bridges not checked
B7: ACTH1-24-point-3-5-NDP-α-MSH (peptide)
peptide: SYSMEHFRWGKPVGKKAAAVKVYPSYS[Nle]EH[dF]RWGKPV
B8: ACTH1-24-point-5-7aa-NDP-α-MSH (peptide)
peptide: SYSMEHFRWGKPVGKKRRAVKVYPGGGGSGGSYS[Nle]EH[dF]RWGKPV
B9: ACTH1-24-point-5-10aa-NDP-α-MSH (peptide)
peptide: SYSMEHFRWGKPVGKKRRAVKVYPGGGGSGGGGSSYS[Nle]EH[dF]RWGKPV
B10: NDP-α-MSH-linker-linker-ACTH1-24 (peptide)
peptide: Ac-SYS[Nle]EH[dF]RWGKPVGGGGSGGGGSSYSMEHFRWGKPVGKKRRPVKVYP
B11: ACTH1-24-point-3-5-7aa-NDP-α-MSH (peptide)
peptide: SYSMEHFRWGKPVGKKAAAVKVYPGGGGSGGSYS[Nle]EH[dF]RWGKPV
modifications: ends and bridges not checked
B12: ACTH1-24-point-1-2-4aa-NDP-α-MSH (peptide)
peptide: SYSMEHFRWGKPVGAARRPVKVYPGGGSSYS[Nle]EH[dF]RWGKPV
modifications: ends and bridges not checked
B13: ACTH1-24-linker-linker-NDP-α-MSH (peptide)
peptide: SYSMEHFRWGKPVGKKRRPVKVYPGGGGSGGGGSSYS[Nle]EH[dF]RWGKPV
modifications: ends and bridges not checked
B14: ACTH1-24-point-3-5-4aa-NDP-α-MSH (peptide)
peptide: SYSMEHFRWGKPVGKKAAAVKVYPGGGSSYS[Nle]EH[dF]RWGKPV
modifications: ends and bridges not checked
B15: ACTH1-24-point-1-2-NDP-α-MSH (peptide)
peptide: SYSMEHFRWGKPVGAARRPVKVYPSYS[Nle]EH[dF]RWGKPV
modifications: ends and bridges not checked

Biological target: MCR4 (human, UniProt P32245 1-332)
Sequence (P32245 whole entry): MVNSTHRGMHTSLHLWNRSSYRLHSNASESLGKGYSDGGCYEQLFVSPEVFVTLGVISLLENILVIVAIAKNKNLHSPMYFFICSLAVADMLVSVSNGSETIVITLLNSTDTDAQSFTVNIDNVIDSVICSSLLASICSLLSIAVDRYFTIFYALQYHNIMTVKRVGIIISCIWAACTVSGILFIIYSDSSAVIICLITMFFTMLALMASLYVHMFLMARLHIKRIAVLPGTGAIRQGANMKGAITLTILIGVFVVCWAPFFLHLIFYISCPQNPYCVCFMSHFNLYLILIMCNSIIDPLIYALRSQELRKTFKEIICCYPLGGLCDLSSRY
Test: cell-based or functional assay

Row | Binder | MCR4 EC50 (nM); cAMP production, LANCE cAMP assay, CHO-MCR4 cells, cell pool C
1 | B1 | 1.9 nM
2 | B2 | 1.5 nM
3 | B3 | 1.8 nM
4 | B4 | 2.3 nM
5 | B5 | 3.8 nM
6 | B6 | 2.3 nM
7 | B7 | 2.2 nM
8 | B8 | 2.1 nM
9 | B9 | 2.8 nM
10 | B10 | 2.2 nM
11 | B11 | 2.4 nM
12 | B12 | 1.7 nM
13 | B13 | 1.8 nM
14 | B14 | 2.4 nM
15 | B15 | 1.4 nM

Biological target: MCR3 (human, UniProt P41968 1-323)
Sequence (P41968 whole entry): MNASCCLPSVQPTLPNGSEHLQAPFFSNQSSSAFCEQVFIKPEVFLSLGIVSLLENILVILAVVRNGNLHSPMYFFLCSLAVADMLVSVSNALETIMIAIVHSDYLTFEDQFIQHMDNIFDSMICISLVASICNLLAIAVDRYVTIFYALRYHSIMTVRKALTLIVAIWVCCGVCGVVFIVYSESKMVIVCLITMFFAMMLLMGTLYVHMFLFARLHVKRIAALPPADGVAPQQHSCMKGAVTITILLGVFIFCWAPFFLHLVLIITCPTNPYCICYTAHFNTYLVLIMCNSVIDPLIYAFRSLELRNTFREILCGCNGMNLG
Test: cell-based or functional assay

Row | Binder | MCR3 EC50 (nM); cAMP production, LANCE cAMP assay, CHO-MCR3 cells, cell pool C
16 | B1 | 0.92 nM
17 | B2 | 0.85 nM
18 | B3 | 0.68 nM
19 | B4 | 0.58 nM
20 | B5 | 1.1 nM
21 | B6 | 0.47 nM
22 | B7 | 0.92 nM
23 | B8 | 0.76 nM
24 | B9 | 1 nM
25 | B10 | 1.8 nM
26 | B11 | 0.72 nM
27 | B12 | 0.42 nM
28 | B13 | 0.8 nM
29 | B14 | 0.61 nM
30 | B15 | 0.72 nM

Biological target: MCR1 (human, UniProt Q01726 1-317)
Sequence (Q01726 whole entry): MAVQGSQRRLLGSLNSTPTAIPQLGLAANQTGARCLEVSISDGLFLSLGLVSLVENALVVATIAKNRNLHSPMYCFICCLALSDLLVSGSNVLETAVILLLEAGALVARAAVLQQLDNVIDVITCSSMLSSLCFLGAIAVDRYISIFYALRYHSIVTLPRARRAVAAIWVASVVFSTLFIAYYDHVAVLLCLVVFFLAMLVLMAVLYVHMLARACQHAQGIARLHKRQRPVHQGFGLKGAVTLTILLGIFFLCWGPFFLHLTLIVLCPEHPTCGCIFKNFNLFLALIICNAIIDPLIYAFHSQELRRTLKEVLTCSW
Test: cell-based or functional assay

Row | Binder | MCR1 EC50 (nM); cAMP production, LANCE cAMP assay, CHO-MCR1 cells, cell pool C
31 | B1 | 0.41 nM
32 | B2 | 0.24 nM
33 | B3 | 0.32 nM
34 | B4 | 0.45 nM
35 | B5 | 0.78 nM
36 | B6 | 0.3 nM
37 | B7 | 0.32 nM
38 | B8 | 0.22 nM
39 | B9 | 0.69 nM
40 | B10 | 0.46 nM
41 | B11 | 0.41 nM
42 | B12 | 0.25 nM
43 | B13 | 0.39 nM
44 | B14 | 0.3 nM
45 | B15 | 0.28 nM

Biological target: MCR5 (human, UniProt P33032 1-325)
Sequence (P33032 whole entry): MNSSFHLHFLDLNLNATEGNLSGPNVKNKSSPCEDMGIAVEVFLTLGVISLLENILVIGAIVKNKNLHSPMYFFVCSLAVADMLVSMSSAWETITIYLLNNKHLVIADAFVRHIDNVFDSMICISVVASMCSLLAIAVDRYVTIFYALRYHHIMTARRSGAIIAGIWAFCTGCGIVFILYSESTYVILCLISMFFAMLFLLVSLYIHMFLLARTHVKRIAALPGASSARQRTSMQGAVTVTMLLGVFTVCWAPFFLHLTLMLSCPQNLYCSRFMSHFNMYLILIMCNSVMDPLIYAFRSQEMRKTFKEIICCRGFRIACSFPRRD
Test: cell-based or functional assay

Row | Binder | MCR5 EC50 (nM); cAMP production, LANCE cAMP assay, CHO-MCR5 cells, cell pool C
46 | B1 | 9.3 nM
47 | B2 | 13 nM
48 | B3 | 20 nM
49 | B4 | 13 nM
50 | B5 | 16 nM
51 | B6 | 10 nM
52 | B7 | 25 nM
53 | B8 | 12 nM
54 | B9 | 11 nM
55 | B10 | 9.8 nM
56 | B11 | 8.5 nM
57 | B12 | 11 nM
58 | B13 | 9.6 nM
59 | B14 | 14 nM
60 | B15 | 21 nM

— patent US20190054150A1 (AEQUUS BIOPHARMA, published 2019)
